From US20200377573A1 (Daiichi Sankyo, published 2020)
Numbering of substitutions follows the chain as printed.

B1: peptide derivative H322AT (designed binder)
chain: DPQFGLFSKYRTPNCSQHEGMACYALYEPVCGSDMSTYANECTLCMKIREGGHNIKIIRNGPCGG
B2: peptide derivative H308AT (designed binder)
chain: B1 chain with Q17D, E19A, Y24V
B3: peptide H223 (designed binder)
chain: B1 chain with S16T, Q17M, H18D, E19M, Y24W, L26F
B4: peptide M7 (designed binder)
chain: B1 chain with Q17D, E19A, Y24V, L26F
B5: peptide H321 (designed binder)
chain: B1 chain with Q17D, H18F, E19D, L26F, A39M, T43A
B6: peptide H322 (designed binder)
chain: B1 chain with A39V, T43A
B7: peptide H228 (designed binder)
chain: B1 chain with S16G, Q17H, H18Y, E19N, M21W, Y24Q, L26F, Y27F
B8: peptide H218 (designed binder)
chain: B1 chain with S16L, Q17K, H18S, L26Y
B9: peptide derivative H321AT (designed binder)
chain: B1 chain with Q17D, H18F, E19D, L26F
B10: peptide H308 (designed binder)
chain: B1 chain with Q17D, E19A, Y24V, A39E, T43V
B11: peptide derivative H322AT_D1G_S16A (designed binder)
chain: B1 chain with D1G, S16A
B12: peptide derivative H321AT_D1G_S16A (designed binder)
chain: B1 chain with D1G, S16A, Q17D, H18F, E19D, L26F
B13: peptide derivative H308_D1G_S16A (designed binder)
chain: B1 chain with D1G, S16A, Q17D, E19A, Y24V, A39E, T43V

Each binder was assayed against T1, HTRA1 (cat) (human, UniProt Q92743 158-373) (assay: cell-based or functional assay).
T1 sequence (Q92743 158-373, form in doubt): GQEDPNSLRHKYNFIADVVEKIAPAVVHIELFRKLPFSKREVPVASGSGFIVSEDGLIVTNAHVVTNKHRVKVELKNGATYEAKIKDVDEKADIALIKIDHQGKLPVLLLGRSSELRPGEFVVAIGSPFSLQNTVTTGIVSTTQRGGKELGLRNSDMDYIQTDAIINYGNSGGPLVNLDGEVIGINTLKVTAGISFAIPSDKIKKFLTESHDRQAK
With B1 the “IC50 (nM) for HTRA1 (cat), decomposition rate of substrate peptide H2-Opt” value (shortened to “IC50 (nM) for HTRA1 (cat)”) was 45 nM. For B2, the “IC50 (nM) for HTRA1 (cat)” value was 49 nM. For B3, the “IC50 (nM) for HTRA1 (cat)” value was 41 nM. For B4, the “IC50 (nM) for HTRA1 (cat)” value was 43 nM. In the case of B5, the “IC50 (nM) for HTRA1 (cat)” value is reported as 48 nM. With B6 the “IC50 (nM) for HTRA1 (cat)” value was 50 nM. B7 was tested, and the “IC50 (nM) for HTRA1 (cat)” value was 71 nM. In the case of B8, the “IC50 (nM) for HTRA1 (cat)” value is reported as 72 nM. For B9, the “IC50 (nM) for HTRA1 (cat)” value was 46 nM. B10 was tested, and the “IC50 (nM) for HTRA1 (cat)” value was 37 nM.

The binders below were run against T2, HTRA1 (full) (human, UniProt Q92743 23-480) (assay: cell-based or functional assay).
T2 sequence (Q92743 23-480): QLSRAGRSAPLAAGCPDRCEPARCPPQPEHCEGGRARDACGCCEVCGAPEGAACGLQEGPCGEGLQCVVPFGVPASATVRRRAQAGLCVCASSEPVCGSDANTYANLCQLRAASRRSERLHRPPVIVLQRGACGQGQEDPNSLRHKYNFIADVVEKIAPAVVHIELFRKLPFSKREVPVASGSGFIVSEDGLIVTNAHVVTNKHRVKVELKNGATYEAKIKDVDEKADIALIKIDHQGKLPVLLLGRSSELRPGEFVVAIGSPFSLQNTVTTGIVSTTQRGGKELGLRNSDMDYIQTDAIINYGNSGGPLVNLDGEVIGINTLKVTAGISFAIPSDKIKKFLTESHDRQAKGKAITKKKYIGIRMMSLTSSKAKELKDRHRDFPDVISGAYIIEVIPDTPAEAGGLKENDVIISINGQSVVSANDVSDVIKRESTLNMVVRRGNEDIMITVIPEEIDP
B1 was tested, and the “IC50 (nM) for HTRA1 (full), decomposition rate of substrate peptide H2-Opt” value (“IC50 (nM) for HTRA1 (full)” for short) was 25 nM. With B2 the “IC50 (nM) for HTRA1 (full)” value was 31 nM. With B3 the “IC50 (nM) for HTRA1 (full)” value was 66 nM. For B4, the “IC50 (nM) for HTRA1 (full)” value was 24 nM. B5 was tested, and the “IC50 (nM) for HTRA1 (full)” value was 29 nM. In the case of B6, the “IC50 (nM) for HTRA1 (full)” value is reported as 17 nM. For B7, the “IC50 (nM) for HTRA1 (full)” value was 38 nM. For B8, the “IC50 (nM) for HTRA1 (full)” value was 55 nM. For B9, the “IC50 (nM) for HTRA1 (full)” value was 18 nM. With B10 the “IC50 (nM) for HTRA1 (full)” value was 15 nM.

Target: T1, HTRA1 (cat)
Test: cell-based or functional assay
Remark: another data set of the same source
With B11 the “IC50 (nM) for HTRA1 (cat)” value was 12.9 nM. In the case of B12, the “IC50 (nM) for HTRA1 (cat)” value is reported as 9 nM. With B13 the “IC50 (nM) for HTRA1 (cat)” value was 7.9 nM.

Target: T2, HTRA1 (full)
Test: cell-based or functional assay
Remark: another data set of the same source
For B11, the “IC50 (nM) for HTRA1 (full)” value was 12.2 nM. B12 was tested, and the “IC50 (nM) for HTRA1 (full)” value was 12 nM. In the case of B13, the “IC50 (nM) for HTRA1 (full)” value is reported as 9.1 nM.
